The values that follow are results of earlier work, collected in paper PMC10910082.

The term Kd denotes the concentration at which binding is half-saturated.

In series [1] the target is CD155 (Homo sapiens) (UniProt P15151).
The next series deals with CD86 (Homo sapiens) (UniProt P42081).
The target of the next series is CD80 (Homo sapiens) (UniProt P33681).
The target of series [2] is CD155 (Homo sapiens) (UniProt P15151). This is another data set of the same source.

Read-outs that look alike come from different tables or passages of the source.

Chain of UniProt P15151 (P15151 21-343): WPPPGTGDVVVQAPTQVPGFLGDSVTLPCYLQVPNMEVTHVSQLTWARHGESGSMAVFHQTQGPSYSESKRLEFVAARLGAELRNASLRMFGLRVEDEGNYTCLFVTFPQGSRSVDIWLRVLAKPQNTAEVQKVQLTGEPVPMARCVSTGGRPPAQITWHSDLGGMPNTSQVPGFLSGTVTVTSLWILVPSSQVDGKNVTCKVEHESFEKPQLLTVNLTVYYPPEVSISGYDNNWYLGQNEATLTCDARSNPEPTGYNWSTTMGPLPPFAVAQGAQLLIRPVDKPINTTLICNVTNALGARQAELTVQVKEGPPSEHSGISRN
Chain of UniProt P42081 (P42081 24-247): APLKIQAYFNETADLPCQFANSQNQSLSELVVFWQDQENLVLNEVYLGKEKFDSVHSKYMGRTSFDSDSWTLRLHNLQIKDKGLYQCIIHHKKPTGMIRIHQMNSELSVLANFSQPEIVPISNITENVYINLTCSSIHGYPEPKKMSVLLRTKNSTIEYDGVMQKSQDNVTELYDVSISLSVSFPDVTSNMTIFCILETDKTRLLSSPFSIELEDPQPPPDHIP
Chain of UniProt P33681 (P33681 35-242): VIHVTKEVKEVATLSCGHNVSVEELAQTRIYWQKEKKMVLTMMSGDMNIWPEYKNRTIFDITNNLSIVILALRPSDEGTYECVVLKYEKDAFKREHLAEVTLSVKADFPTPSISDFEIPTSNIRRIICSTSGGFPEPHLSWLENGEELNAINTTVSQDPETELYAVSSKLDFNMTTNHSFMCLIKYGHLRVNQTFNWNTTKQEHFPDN

Consider TIGIT (from UniProt Q495A1), for which the Kd in the series with CD155 (Homo sapiens) [1] was 2 nM. For CD28 (from UniProt P10747), the Kd was 27500 nM with CD86 (Homo sapiens) and 4000 nM with CD80 (Homo sapiens). In the case of CD226 (from UniProt Q15762), in the series with CD155 (Homo sapiens) [2], the Kd was 116 nM.
